Results as given in the supplement of paper PMC5998384.

Key:
[1] = system: HeLa Kyoto; assay: solubility change mitosis vs G1/S (difference of NP-40 vs SDS log2 ratios) (log2 ratio difference); higher = more soluble in mitosis
[2] = system: HeLa Kyoto; assay: melting temperature (median over replicates), in situ; higher = more thermally stable
[3] = system: HeLa Kyoto; assay: thermal stability score vs G1/S (z-score of summed log2 fold changes over temperatures); higher = more thermally stable than in G1/S
[4] = system: HeLa Kyoto; assay: solubility in G1/S (NP-40 vs SDS abundance) (log2 ratio); higher = more soluble; settings: cell cycle stage: G1/S
[5] = cell cycle stage: early G1 (4.5 h after nocodazole release)
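Throughout, for melting temperature (median over replicates), in situ: HeLa Kyoto cells synchronized by double thymidine or nocodazole block, proteins quantified by TMT10plex mass spectrometry, three independent biological replicates.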
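Throughout, for solubility change mitosis vs G1/S (difference of NP-40 vs SDS log2 ratios): synchronized HeLa Kyoto cells (double thymidine block for G1/S, nocodazole release for mitosis), protein amounts in NP-40 versus SDS lysates quantified by mass spectrometry, three biological replicates.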
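Throughout, for solubility in G1/S (NP-40 vs SDS abundance): HeLa Kyoto cells arrested at G1/S by double thymidine block, proteins quantified by TMT10plex mass spectrometry in mild NP-40 versus SDS extracts, three biological replicates.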
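Throughout, for thermal stability score vs G1/S (z-score of summed log2 fold changes over temperatures): synchronized HeLa Kyoto cells, proteins quantified by TMT10plex mass spectrometry, three biological replicates, mitosis taken 0.5 h after nocodazole release, G1/S directly after double thymidine block.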

Chain of CTSD (chain, as listed by the source): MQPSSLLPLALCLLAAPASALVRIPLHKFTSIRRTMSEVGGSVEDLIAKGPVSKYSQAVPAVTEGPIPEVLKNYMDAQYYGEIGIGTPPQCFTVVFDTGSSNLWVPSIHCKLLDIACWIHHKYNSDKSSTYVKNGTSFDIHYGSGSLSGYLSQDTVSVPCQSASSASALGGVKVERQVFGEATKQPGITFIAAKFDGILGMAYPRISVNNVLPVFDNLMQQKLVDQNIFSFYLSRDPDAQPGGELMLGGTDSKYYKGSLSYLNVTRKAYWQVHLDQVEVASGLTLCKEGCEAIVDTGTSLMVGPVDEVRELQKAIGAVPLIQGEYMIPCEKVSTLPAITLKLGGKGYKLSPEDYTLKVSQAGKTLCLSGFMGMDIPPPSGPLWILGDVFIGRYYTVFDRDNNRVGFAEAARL
Chain of MAP7D1 (chain, as listed by the source): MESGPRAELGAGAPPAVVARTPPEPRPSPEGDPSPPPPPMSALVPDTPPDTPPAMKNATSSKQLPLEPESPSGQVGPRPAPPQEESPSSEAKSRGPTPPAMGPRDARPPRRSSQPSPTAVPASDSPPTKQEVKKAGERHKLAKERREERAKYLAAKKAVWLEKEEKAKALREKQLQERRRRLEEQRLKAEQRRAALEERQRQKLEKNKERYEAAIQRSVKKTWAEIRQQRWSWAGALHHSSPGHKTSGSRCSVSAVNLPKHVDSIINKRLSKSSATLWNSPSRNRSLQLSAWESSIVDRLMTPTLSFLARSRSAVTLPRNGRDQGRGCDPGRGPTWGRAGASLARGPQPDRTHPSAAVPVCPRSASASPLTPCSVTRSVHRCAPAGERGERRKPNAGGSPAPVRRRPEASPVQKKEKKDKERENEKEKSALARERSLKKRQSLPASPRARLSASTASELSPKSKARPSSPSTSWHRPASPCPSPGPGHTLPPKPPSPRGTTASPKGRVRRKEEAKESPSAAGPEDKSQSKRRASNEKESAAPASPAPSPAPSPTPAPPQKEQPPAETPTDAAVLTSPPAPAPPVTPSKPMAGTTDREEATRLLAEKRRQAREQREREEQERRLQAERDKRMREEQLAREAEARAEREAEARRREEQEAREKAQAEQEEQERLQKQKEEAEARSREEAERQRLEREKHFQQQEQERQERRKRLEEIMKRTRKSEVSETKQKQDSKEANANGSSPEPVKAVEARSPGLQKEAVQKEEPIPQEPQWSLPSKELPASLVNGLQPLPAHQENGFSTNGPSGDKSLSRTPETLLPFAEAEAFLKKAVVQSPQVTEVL

Substance | solubility change mitosis (log2) [1] | melting temperature ([2]; cell cycle stage: G1/S) | melting temperature ([2]; cell cycle stage: mitosis) | thermal stability score [3, 5] | thermal stability score ([3]; cell cycle stage: mitosis) | solubility in G1/S (log2) [4]
MESKALLVLTLAVWLQSLTASRGGVAAADQRRDFIDIESKFALRTPEDTAEDTCHLIPGVAESVATCHFNHSSKTFMVIHGWTVTGMYESWVPKLVAALYKREPDSNVIVVDWLSRAQEHYPVSAGYTKLVGQDVARFINWMEEEFNYPLDNVHLLGYSLGAHAAGIAGSLTNKKVNRITGLDPAGPNFEYAEAPSRLSPDDADFVDVLHTFTRGSPGRSIGIQKPVGHVDIYPNGGTFQPGCNIGEAIRVIAERGLGDVDQLVKCSHERSIHLFIDSLLNEENPSKAYRCSSKEAFEKGLCLSCRKNRCNNLGYEINKVRAKRSSKMYLKTRSQMPYKVFHYQVKIHFSGTESETHTNQAFEISLYGTVAESENIPFTLPEVSTNKTYSFLIYTEVDIGELLMLKLKWKSDSYFSWSDWWSSPGFAIQKIRVKAGETQKKVIFCSREKVSHLQKGKAPAVFVKCHDKSLNKKSG [LPL] | -0.028 | 53.9 °C | 53.7 °C | -1.96 | -2.52 | -0.0225
MAP7D1 | 0.536 | 52.8 °C | 51.2 °C | -1.09 | -4.66 | 0.337
MMDLRNTPAKSLDKFIEDYLLPDTCFRMQINHAIDIICGFLKERCFRGSSYPVCVSKVVKGGSSGKGTTLRGRSDADLVVFLSPLTTFQDQLNRRGEFIQEIRRQLEACQRERAFSVKFEVQAPRWGNPRALSFVLSSLQLGEGVEFDVLPAFDALGQLTGGYKPNPQIYVKLIEECTDLQKEGEFSTCFTELQRDFLKQRPTKLKSLIRLVKHWYQNCKKKLGKLPPQYALELLTVYAWERGSMKTHFNTAQGFRTVLELVINYQQLCIYWTKYYDFKNPIIEKYLRRQLTKPRPVILDPADPTGNLGGGDPKGWRQLAQEAEAWLNYPCFKNWDGSPVSSWILLAESNSADDETDDPRRYQKYGYIGTHEYPHFSHRPSTLQAASTPQAEEDWTCTIL [OAS1] | -0.0843 | 50.5 °C | 49.5 °C | -0.255 | 0.00402 | 0.134
CTSD | -0.113 | 56.2 °C | 57 °C | 1.02 | -1.76 | 0.272
MAEGSAVSDPQHAARLLRALSSFREESRFCDAHLVLDGEEIPVQKNILAAASPYIRTKLNYNPPKDDGSTYKIELEGISVMVMREILDYIFSGQIRLNEDTIQDVVQAADLLLLTDLKTLCCEFLEGCIAAENCIGIRDFALHYCLHHVHYLATEYLETHFRDVSSTEEFLELSPQKLKEVISLEKLNVGNERYVFEAVIRWIAHDTEIRKVHMKDVMSALWVSGLDSSYLREQMLNEPLVREIVKECSNIPLSQPQQGEAMLANFKPRGYSECIVTVGGEERVSRKPTAAMRCMCPLYDPNRQLWIELAPLSMPRINHGVLSAEGFLFVFGGQDENKQTLSSGEKYDPDANTWTALPPMNEARHNFGIVEIDGMLYILGGEDGEKELISMECYDIYSKTWTKQPDLTMVRKIGCYAAMKKKIYAMGGGSYGKLFESVECYDPRTQQWTAICPLKERRFGAVACGVAMELYVFGGVRSREDAQGSEMVTCKSEFYHDEFKRWIYLNDQNLCIPASSSFVYGAVPIGASIYVIGDLDTGTNYDYVREFKRSTGTWHHTKPLLPSDLRRTGCAALRIANCKLFRLQLQQGLFRIRVHSP [GAN] | -0.271 | 51.6 °C | 48.7 °C | -0.83 | -2.48 | -0.0081
MRDRTHELRQGDDSSDEEDKERVALVVHPGTARLGSPDEEFFHKVRTIRQTIVKLGNKVQELEKQQVTILATPLPEESMKQELQNLRDEIKQLGREIRLQLKAIEPQKEEADENYNSVNTRMRKTQHGVLSQQFVELINKCNSMQSEYREKNVERIRRQLKITNAGMVSDEELEQMLDSGQSEVFVSNILKDTQVTRQALNEISARHSEIQQLERSIRELHDIFTFLATEVEMQGEMINRIEKNILSSADYVERGQEHVKTALENQKKARKKKVLIAICVSITVVLLAVIIGVTVVG [STX4] | 0.0104 | 51.2 °C | 50.5 °C | 0.652 | 0.313 | 0.326
MHPAGLAAAAAGTPRLRKWPSKRRIPVSQPGMADPHQLFDDTSSAQSRGYGAQRAPGGLSYPAASPTPHAAFLADPVSNMAMAYGSSLAAQGKELVDKNIDRFIPITKLKYYFAVDTMYVGRKLGLLFFPYLHQDWEVQYQQDTPVAPRFDVNAPDLYIPAMAFITYVLVAGLALGTQDRFSPDLLGLQASSALAWLTLEVLAILLSLYLVTVNTDLTTIDLVAFLGYKYVGMIGGVLMGLLFGKIGYYLVLGWCCVAIFVFMIRTLRLKILADAAAEGVPVRGARNQLRMYLTMAVAAAQPMLMYWLTFHLVR [YIF1B] | -0.373 | 53.5 °C | 54.8 °C | -0.959 | -1.51 | 0.0319
MKIKDAKKPSFPWFGMDIGGTLVKLSYFEPIDITAEEEQEEVESLKSIRKYLTSNVAYGSTGIRDVHLELKDLTLFGRRGNLHFIRFPTQDLPTFIQMGRDKNFSTLQTVLCATGGGAYKFEKDFRTIGNLHLHKLDELDCLVKGLLYIDSVSFNGQAECYYFANASEPERCQKMPFNLDDPYPLLVVNIGSGVSILAVHSKDNYKRVTGTSLGGGTFLGLCSLLTGCESFEEALEMASKGDSTQADKLVRDIYGGDYERFGLPGWAVASSFGNMIYKEKRESVSKEDLARATLVTITNNIGSVARMCAVNEKINRVVFVGNFLRVNTLSMKLLAYALDYWSKGQLKALFLEHEGYFGAVGALLGLPNFS [PANK3] | -0.137 | 53.4 °C | 53.9 °C | -1.56 | -0.972 | -0.124
